Experimental data reported in paper PMC3852661, “Structural basis of SUFU–GLI interaction in human Hedgehog signalling regulation” (Acta Crystallographica Section D: Biological Crystallography, 2013).

How the values were obtained:
MBP-SUFU-Δ = target: T1, MBP-SUFU-Δ (Homo sapiens, UniProt Q9UMX1, DEL285-359/L360P/P281R/P282G/R280S/S279P); experiment: SYPRO Orange initial fluorescence upon peptide addition, MBP-SUFU-Δ; format: binding; conditions: excitation 470 nm, emission 570 nm, pH 7.0
T1 construct: subcloning different SUFU32–483 variants into vector pLJMBP4c; His tag (as in MBP-SUFU-FL; purified on HisTrap) (C); made in house; host or cells: Escherichia coli JM109 (DE3)
T1 sequence (Q9UMX1 with tags, fused parts or gaps S279P/R280S/P281R/P282G/DEL285-359/L360P limits assumed, other chains not shown): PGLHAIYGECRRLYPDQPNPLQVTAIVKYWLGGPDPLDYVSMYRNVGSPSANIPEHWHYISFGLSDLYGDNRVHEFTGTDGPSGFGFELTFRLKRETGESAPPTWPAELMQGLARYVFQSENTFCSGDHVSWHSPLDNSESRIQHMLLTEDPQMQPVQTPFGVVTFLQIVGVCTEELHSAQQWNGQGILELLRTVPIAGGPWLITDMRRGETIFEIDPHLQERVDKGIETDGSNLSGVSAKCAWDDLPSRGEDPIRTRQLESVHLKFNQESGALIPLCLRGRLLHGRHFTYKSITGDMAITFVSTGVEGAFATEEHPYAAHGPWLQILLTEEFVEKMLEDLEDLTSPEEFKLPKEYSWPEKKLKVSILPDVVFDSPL
Protocol: (§1) Recombinant MBP-SUFU proteins were diluted to 2.6 µM in 50 mM Na HEPES pH 7.0, 50 mM NaCl, 5 mM β-mercaptoethanol; the peptides GLI1p and GLI1p-SH (Supplementary Table S1b), synthesized by Dr W. Mawby (University of Bristol), were dissolved in the same buffer. Proteins were spun at 14 000g for 20 min at 4°C before adding SYPRO Orange (Molecular Probes) to a final concentration of 6×. Reaction volumes of 25 µl were prepared in 96-well PCR plates with 2.2 µM protein/SYPRO Orange solution and, where applicable, 44 µM peptide. Plates were sealed with optical tape, heated from 20 to 90°C in 12 s 0.2°C steps in an iCycler and fluorescence was detected using an excitation wavelength of 470 nm and an emission wavelength of 570 nm.
(§2) Recombinant MBP-SUFU constructs were diluted to 2.5 µM in 50 mM Na HEPES pH 7.0, 50 mM NaCl, 5 mM β-mercaptoethanol and spun at 14 000g for 20 min at 4°C before the addition of SYPRO Orange to a final 5× concentration of dye. The fluorescence of 100 µl samples was measured in black 96-well plates (Nunc) using excitation at λ = 470 nm and emission at λ = 570 nm. GLI1p or GLI1p-SH peptides prepared in the same buffer as above were added in the given ratios and mixed before a second reading was taken. Readings post-peptide addition were divided by the corresponding pre-peptide addition measurements to obtain normalized results. […]

MBP-SUFU-SH = experiment: SYPRO Orange initial fluorescence upon peptide addition, MBP-SUFU-SH; format: binding, human; conditions: excitation 470 nm, emission 570 nm, pH 7.0
MBP-SUFU-SH, sequence (Q9UMX1 32-278 limits assumed): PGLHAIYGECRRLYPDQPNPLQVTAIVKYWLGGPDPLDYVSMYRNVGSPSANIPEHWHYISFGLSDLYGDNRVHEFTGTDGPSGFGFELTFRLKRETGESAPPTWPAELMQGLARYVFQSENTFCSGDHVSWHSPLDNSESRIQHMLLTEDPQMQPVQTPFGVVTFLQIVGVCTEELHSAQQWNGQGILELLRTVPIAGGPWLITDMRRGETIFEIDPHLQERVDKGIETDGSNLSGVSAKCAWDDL
MBP-SUFU-SH, sequence (Q9UMX1 361-483 limits assumed): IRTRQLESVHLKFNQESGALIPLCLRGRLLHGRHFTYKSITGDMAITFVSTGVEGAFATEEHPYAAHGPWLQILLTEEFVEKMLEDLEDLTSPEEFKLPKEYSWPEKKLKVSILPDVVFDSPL
Protocol: as §1, §2

- initial fluorescence upon addition of GLI1p (MBP-SUFU-Δ): no such effect
Substance: GLI1p: human GLI1-derived peptide; residues 115–131, containing the highly conserved SYGH motif (TSPGGSYGHLSIGTMSP)
- initial fluorescence upon addition of GLI1p (MBP-SUFU-SH): no such effect
